Source: doi:10.1101/2025.07.22.666160, “Alphaherpesvirus pUL21 homologues use non-canonical motifs to compete with cellular adaptors for protein phosphatase 1 binding” (bioRxiv, 2025)
Primed or numbered codes have the meaning given here. Where no end group is shown, it is not given here. FITC′ = fluorescein isothiocyanate; Ahx = NCCCCCC(=O)O

Tests used:
Settings in all cases: both partners purified
[1] = molecular target: T1, mouse PP1γ catalytic domain (residues 7–300)-H6 (mouse, UniProt P63087 7-300); test: ITC; 25°C; 50 mM HEPES pH 8.0, 500 mM NaCl, 0.5 mM TCEP; 12 x 3 µL injections; one-site binding model; syringe and cell contents in Table S1
T1 construct: Protein phosphatase 1 gamma catalytic domain, mouse, residues 7-300; also called PP1 catalytic domain; source: E. coli T7 Express lysY/Iq, purified (Ni-NTA, SEC)

[2] = molecular target: T1, mouse PP1γ catalytic domain (residues …); test: fluorescence polarisation; competition fluorescence anisotropy; competitor titrated into a pre-formed complex of 2 nM FITC-GADD34 peptide and 250 nM PP1γ (final); 27°C; 50 mM HEPES pH 8.0, 500 mM NaCl, 0.05% TWEEN-20
[3] = molecular target: T1, mouse PP1γ catalytic domain (residues …); test: fluorescence polarisation; competition fluorescence anisotropy; pUL21 titrated into a pre-formed complex of 2 nM FITC-GADD34 peptide and 250 nM PP1γ; Tris pH 8.5 in place of HEPES pH 8
[4] = molecular target: T1, mouse PP1γ catalytic domain (residues …); test: fluorescence polarisation; fluorescence anisotropy; serial dilution of PP1γ catalytic domain with 2 nM FITC-GADD34 peptide; Tris pH 8.5 in place of HEPES pH 8
[5] = molecular target: T1, mouse PP1γ catalytic domain (residues …); test: fluorescence polarisation; fluorescence anisotropy; serial dilution of PP1γ catalytic domain with 2 nM FITC-GADD34 peptide; 27°C; 50 mM HEPES pH 8.0, 500 mM NaCl, 0.05% TWEEN-20; one-site model

T1 sequence (P63087 7-300): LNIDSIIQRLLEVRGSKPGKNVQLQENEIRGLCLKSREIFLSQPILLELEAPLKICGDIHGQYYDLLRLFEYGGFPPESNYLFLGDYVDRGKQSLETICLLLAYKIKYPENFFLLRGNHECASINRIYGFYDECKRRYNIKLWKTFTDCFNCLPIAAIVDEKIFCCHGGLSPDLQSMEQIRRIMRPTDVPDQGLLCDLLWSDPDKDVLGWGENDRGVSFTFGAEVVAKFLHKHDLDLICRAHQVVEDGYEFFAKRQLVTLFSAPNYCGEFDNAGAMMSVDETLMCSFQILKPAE

B1: pORF38-NLT-H6 (residues 1–263) (domain or fragment)
chain: MEFPYHSTVSYNGVTFYFNERATRAYFICGGCLISIPRKHGGEIAKFGHVVRGVGPGDRSVASYVRSELNRTGKTWAVSSNNNCVFLDRVALLAAGSGAVDRDLCGTFDVEVEDPTLADYLVSLPVTHLTLVAGVDVTRENKLKLFPTPTAINTTNGFMYVPNEASFSLVYMRMLELPESLQELVSGLFDGTPEIRDALNGSNDDEKTSIIVSRRAADVVTEDVKADDVPISGEPYSEKQPRRRKKSDHITLSNFVQIRTIPR
notes: VZV pORF38 residues 1-263: N-terminal domain plus linker region to the end of the TROPPO motif (NLT region); Sub-cloned into the vector pOPTnH; also called pOPF38-NLT; source: E. coli T7 Express lysY/Iq, purified (Ni-NTA, SEC); not shown: His6, C-terminal, kept
[1]
  Kd: 497 nM
  stoichiometry N: 1
[2]
  IC50: 417 nM

B2: pUL21-RVxF-H6 (A237V+V239F) (natural protein)
chain: MELSYATTMHYRDVVFYVTTDRNRAYFVCGGCVYSVGRPCASQPGEIAKFGLVVRGTGPDDRVVANYVRSELRQRGLQDVRPIGEDEVFLDSVCLLNPNVSSELDVINTNDVEVLDECLAEYCTSLRTSPGVLISGLRVRAQDRIIELFEHPTIVNVSSHFVYTPSPYVFALAQAHLPRLPSSLEALVSGLFDGIPAPRQPLDAHNPRTDVVITGRRAPRPIAGSGAGSGGAGAKRVTFSEFVQVKHIDRVGPAGVSPAPPPNNTDSSSLVPGAQDSAPPGPTLRELWWVFYAADRALEEPRADSGLTREEVRAVRGFREQAWKLFGSAGAPRAFIGAALGLSPLQKLAVYYYIIHRERRLSPFPALVRLVGRYTQRHGLYVPRPDDPVLADAINGLFRDALAAGTTAEQLLMFDLLPPKDVPVGSDVQADSTALLRFIESQRLAVPGGVISPEHVAYLGAFLSVLYAGRGRMSAATHTARLTGVTSLVLAVGDVDRLSAFDRGAAGAASRTRAAGYLDVLLTVRLARSQHGQSV
notes: HSV-1 pUL21 with A237V and V239F, made from pUL21-H6 (the full-length protein) by site-directed mutagenesis; methods, results and legend say V239F; also called RVxF pUL21; A237V+V239F (RVxF) mutant; source: E. coli T7 Express lysY/Iq, purified (Ni-NTA, SEC); not shown: His6, C-terminal, kept
[3]
  IC50: 337 nM

B3: GADD34 RVxF+ϕϕ[xF] peptide (residues 552–568), FITC-labelled (peptide)
peptide: {FITC′-Ahx}-KARKVRFSEKVTVHFLA
notes: GADD34 (PP1 regulatory subunit 15A, PPP1R15A), residues 552-568 with the RVxF and ϕϕ[xF] motifs; also called GADD34 peptide; fluorescent GADD34 peptide; source: synthetic peptide (GenScript, >95% purity)
[4]
  Kd: 55 nM
[5]
  Kd: 144 nM
